Reference: patent US20220281980A1 (Bristol-Myers Squibb, published 2022)
Values belong to the binder of their own block, whether it stands above or below them.

What was measured:
[1] = target: T1, human MICA/B endogenously expressed on SW480 cells (human, UniProt Q29983 24-383); experiment: saturation binding of 125I-labelled antibody on SW480 cells, 25,000 cells/well (Scatchard analysis); x axis 'Ab' carries no unit, nM taken from paragraph 587; non-specific binding is nearly as high as specific binding
T1 construct: whole, on cells
T1 sequence (looked up): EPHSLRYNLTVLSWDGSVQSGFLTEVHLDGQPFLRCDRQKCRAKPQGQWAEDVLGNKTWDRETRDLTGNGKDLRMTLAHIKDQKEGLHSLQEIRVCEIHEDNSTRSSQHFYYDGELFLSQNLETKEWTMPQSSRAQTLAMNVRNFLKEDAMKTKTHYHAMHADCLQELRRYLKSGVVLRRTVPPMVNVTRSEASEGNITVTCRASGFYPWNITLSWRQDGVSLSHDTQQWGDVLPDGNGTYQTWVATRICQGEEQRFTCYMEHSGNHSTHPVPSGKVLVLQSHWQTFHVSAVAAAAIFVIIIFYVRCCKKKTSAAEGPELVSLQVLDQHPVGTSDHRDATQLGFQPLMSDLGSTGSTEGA
Experimental: (§1) Nonspecific binding was determined by binding in the presence of a titration of a 100 fold molar excess of unlabeled antibody and was subtracted from total counts per minute (CPM) to calculate specific binding. A linear standard curve of ¹²⁵I-MICA.36 concentration versus CPM was used to extrapolate specific activity, maximal nM bound ¹²⁵I-MICA.36 and thereby calculate receptor number per cell.
(§2) Specific activity of the iodinated MICA.36 was determined by plotting antibody titrations against the associated CPMs in a standard curve (FIG. 7A). The specific activity was calculated to be 164,214 CPM in 1 nM of ¹²⁵I-MICA.36. The number of receptors per cell was calculated by the following equation: (Bmax)×(Avogadro's number)×(Assay Volume)/# of cells per well.

[2] = target: T2, cynomolgus monkey MICA/B clone #6 expressed on CHO cells (cynomolgus monkey); experiment: saturation binding of 125I-labelled antibody on CHO-MICA Cyno #6 cells, 25K per well; fit of total binding, non-specific binding not subtracted
T2 construct: whole, on cells; also called cyno#6; CHO-cyno MICA clone #6
Experimental: as §1, §2

[3] = target: T1, human MICA/B endogenously expressed on …; experiment: saturation binding of 125I-labelled antibody on SW480 cells, 25,000 cells/well; fit of total binding, non-specific binding not subtracted; x axis without unit
Experimental: as §1, §2

[4] = target: T3, human MICA/B endogenously expressed on 786-O cells (MICA allele *008) (human, UniProt Q29983 24-331); experiment: saturation binding of 125I-labelled antibody on 786-O cells, 50,000 cells/well; fit of total binding, non-specific binding not subtracted
T3 construct: it speaks of MICA/B, so MICB may be present as well; also called 786-0
T3 chain: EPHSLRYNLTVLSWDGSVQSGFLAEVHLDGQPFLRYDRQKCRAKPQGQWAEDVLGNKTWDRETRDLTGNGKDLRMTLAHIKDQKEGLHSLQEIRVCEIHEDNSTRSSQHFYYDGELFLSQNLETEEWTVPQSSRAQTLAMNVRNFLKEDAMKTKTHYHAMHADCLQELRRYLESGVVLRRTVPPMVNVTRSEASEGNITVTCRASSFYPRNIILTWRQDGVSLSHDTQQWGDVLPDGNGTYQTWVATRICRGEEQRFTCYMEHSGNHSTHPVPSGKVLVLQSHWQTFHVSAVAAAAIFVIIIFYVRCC
Experimental: as §1

[5] = target: T2, cynomolgus monkey MICA/B clone #6 …; experiment: saturation binding of 125I-labelled antibody on CHO-MICA Cyno #6 cells, 25K per well (Scatchard analysis); unit from the x axis 'nM Radioligand'
Experimental: as §1, §2

[6] = target: T4, cynomolgus monkey MICA/B clone #4 expressed on CHO cells (cynomolgus monkey); experiment: saturation binding of 125I-labelled antibody on CHO-MICA Cyno #4 cells, 25K per well (Scatchard analysis); unit from the x axis 'nM Radioligand'; curve not saturated at 20 nM
T4 construct: whole, on cells; also called cyno#4; CHO-cyno MICA clone #4
Experimental: as §1, §2

[7] = target: T1, human MICA/B endogenously expressed on …; experiment: Scatchard analysis, 125I-MICA.36 on SW480 cells; SW480 cells (FIG. 7G)
Experimental: as §1, §2

[8] = target: T5, human MICA*008 expressed on CHO cells (human, UniProt Q29983 24-331); experiment: saturation binding of 125I-labelled antibody on CHO-MICA*008 cells, 12,500 cells/well; fit of total binding, non-specific binding not subtracted
T5 construct: also called MICA allele 008
T5 chain: T3 chain
Experimental: as §1, §2

[9] = target: T6, human MICB expressed on transduced cells (human, UniProt Q29980 23-382); experiment: saturation binding of 125I-labelled antibody on CHO-MICB cells, 12500 per well (Scatchard analysis); x axis 'Ab' carries no unit, nM taken from paragraph 587
T6 construct: also called MICB*005
T6 chain: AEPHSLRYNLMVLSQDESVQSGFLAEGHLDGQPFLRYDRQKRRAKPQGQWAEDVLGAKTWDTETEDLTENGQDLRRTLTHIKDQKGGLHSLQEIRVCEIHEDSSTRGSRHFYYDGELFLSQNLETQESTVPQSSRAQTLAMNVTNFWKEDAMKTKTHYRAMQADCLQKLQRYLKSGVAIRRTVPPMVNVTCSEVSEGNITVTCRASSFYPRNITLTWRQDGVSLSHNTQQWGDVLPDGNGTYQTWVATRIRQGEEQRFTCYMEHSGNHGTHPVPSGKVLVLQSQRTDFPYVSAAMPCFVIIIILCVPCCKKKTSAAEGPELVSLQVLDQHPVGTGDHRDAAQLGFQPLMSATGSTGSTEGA
Experimental: as §1, §2

[10] = target: T2, cynomolgus monkey MICA/B clone #6 …; experiment: flow cytometry (GMFI, FACSCalibur), CHO cells with cyno MICA #6; unit from the x axis; curve from about 1500 at 0.1 ug/ml to about 40500 GMFI at 40 ug/ml
[11] = target: T4, cynomolgus monkey MICA/B clone #4 …; experiment: flow cytometry (GMFI, FACSCalibur), CHO cells with cyno MICA #4; unit from the x axis; curve from about 13000 at 0.1 ug/ml to about 94500 GMFI at 40 ug/ml

Kd [1]: 0.385 nM
Kd of the total-binding curve [2]: 8.27 nM
Kd of the total-binding curve [3]: 0.871 nM
Kd of the total-binding curve [4]: 0.6 nM
Kd [5]: 5.12 nM
Kd [6]: 11 nM
Kd [7]: ~0.4 nM
Kd of the total-binding curve [8]: 1.24 nM
Kd [9]: 1.36 nM
B1: MICA.36 (antibody, V domains shown)
VH: QVQLVESGGGVVQPGRSLRLSCAASGFTFSNYAMHWVRQAPGEGLEWVALIWYDGSNKFYGDSVKGRFTISRDNSKNTLYLQMNSLSAEDTAVYYCAREGSGHYWGQGTLVTVSS
VL: AIQLTQSPSSLSASVGDRVTITCRASQGISSALAWYQQKPGKVPKSLIYDASSLESGVPSRFSGSGSGTDFTLTISSLQPEDFATYYCQQFNSYPITFGQGTRLEIK
notes: it says that the name implies no specific constant region; Radioiodinated in the Scatchard assay; also called MICA.36 antibody

EC50 [10]: 3.3 µg/mL
EC50 [11]: 0.161 µg/mL
B2: 19G6 (antibody, V domains shown)
VH: B1 VH
VL: B1 VL
notes: Hybridoma antibody from human IgG transgenic mice, parent of MICA.36; also called 19G6 mAb; hybridoma 19G6
